Where two headings read alike, the source gives them in different places.
Legend:
Experiment in all cases: cross-linking
[1] = biological target: Z protein with N-epsilon-fluoroacetyllysine at residue 24, fused to maltose binding protein
[2] = biological target: Z protein with N-epsilon-fluoroacetyllysine at residue 24, fused to maltose binding protein; remark: listed apart in the source
[3] = biological target: Z protein with N-epsilon-fluoroacetyllysine at residue 6, fused to maltose binding protein
[4] = biological target: Z protein with N-epsilon-fluoroacetyllysine at residue 6, fused to maltose binding protein; remark: listed apart in the source
[5] = biological target: Z protein with Cys at residue 6, fused to maltose binding protein
[6] = biological target: Z protein with Cys at residue 6, fused to maltose binding protein; remark: listed apart in the source

“Zspa Affibody (Afb) with Cys at position 7 (designed binder)” gave a crosslinking yield [1] of 34% and a crosslinking yield [2] of 12%.
With “Zspa Affibody (Afb) with Cys at position 36 (designed binder)” the crosslinking yield [3] was 64% and the crosslinking yield [4] was 24%.
“Zspa Affibody (Afb) with N-epsilon-fluoroacetyllysine at position 36 (designed binder)” showed a crosslinking efficiency [5] of 88% and a crosslinking yield [6] of 33%.
